{"source": "paper PMC9651203", "key": {"[1]": {"target": "DnaK (protein used for surface plasmon resonance) (Mycoplasma fermentans)", "assay": "SPR; BIAcore T100, 25°C, HBS-EP (10 mM HEPES, 150 mM NaCl, 0.05% surfactant P20, pH 7.4, 3 mM EDTA); DnaK (2274.9 RU) amine-coupled on CM5 chip, DnaK as analyte at 35 ul/min, 120 s association, 600 s dissociation; preliminary kinetic analysis; self-binding (homodimer by the paper's words)"}, "[2]": {"target": "DnaK (protein used for surface plasmon resonance) (Mycoplasma fermentans)", "assay": "SPR; BIAcore T100, 25°C, HBS-EP (10 mM HEPES, 150 mM NaCl, 0.05% surfactant P20, pH 7.4, 3 mM EDTA); DnaK (2220 RU) amine-coupled on CM5 chip, PARP1 as analyte at 35 ul/min, 250 s association, 600 s dissociation; preliminary kinetic analysis"}}, "data": [{"substance": "DnaK (protein used for surface plasmon resonance) (natural protein)", "values": [{"measurement": "Kd", "setting": "[1]", "result": 29.6, "unit": "nM"}]}, {"substance": "PARP1 (protein used for surface plasmon resonance) (from UniProt P09874 1-1014) (natural protein)", "values": [{"measurement": "Kd", "setting": "[2]", "result": 25, "unit": "nM"}]}]}
